Results from paper PMC3335848, “Characterization of Multi-Functional Properties and Conformational Analysis of MutS2 from Thermotoga maritima MSB8” (PLoS ONE, 2012).

Columns and labels:
[1] = target: the molecule itself; assay: AUC; sedimentation velocity, 20°C, 40000 rpm, 24 h, absorbance at 280 nm, C(s) method
[2] = target: T1, TmMutS2 (Thermotoga maritima MSB8, UniProt Q9X105 1-757); assay: EMSA; no ATP; 0-2 uM protein; strongest binding among the DNAs; EMSA: 25 mM Hepes-NaOH pH 7.5, 200 mM NaCl, 0.5 mM EDTA, 37 C, 1 h; DNA 1 uM, TmMutS2 0-2 uM, +/- 1 mM ATP; details: protein: recombinant; tags: His-tag removed with TEV protease (pET-28aTEV); chain copies: 2; label: 5'-32P (EMSA); four-way junction of 4 strands
T1 sequence: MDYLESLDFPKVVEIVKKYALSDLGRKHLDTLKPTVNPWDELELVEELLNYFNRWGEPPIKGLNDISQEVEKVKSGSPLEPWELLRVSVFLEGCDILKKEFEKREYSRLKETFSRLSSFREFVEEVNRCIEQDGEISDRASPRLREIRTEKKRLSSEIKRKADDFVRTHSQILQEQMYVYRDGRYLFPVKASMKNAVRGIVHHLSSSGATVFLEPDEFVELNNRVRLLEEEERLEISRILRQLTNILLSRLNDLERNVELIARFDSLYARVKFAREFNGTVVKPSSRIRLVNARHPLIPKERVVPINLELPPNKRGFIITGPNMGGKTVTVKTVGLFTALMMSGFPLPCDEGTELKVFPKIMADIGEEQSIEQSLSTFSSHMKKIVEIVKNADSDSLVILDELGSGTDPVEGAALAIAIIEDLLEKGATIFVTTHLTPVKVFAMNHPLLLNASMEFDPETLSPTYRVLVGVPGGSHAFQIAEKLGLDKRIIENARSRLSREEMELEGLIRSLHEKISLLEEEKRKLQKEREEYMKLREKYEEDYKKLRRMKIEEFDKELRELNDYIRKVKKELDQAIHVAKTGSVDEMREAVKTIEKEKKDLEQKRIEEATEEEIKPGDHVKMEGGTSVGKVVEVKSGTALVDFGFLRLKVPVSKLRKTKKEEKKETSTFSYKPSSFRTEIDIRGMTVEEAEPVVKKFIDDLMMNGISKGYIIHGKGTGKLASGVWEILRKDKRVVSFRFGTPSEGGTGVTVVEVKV

[3] = target: T1, TmMutS2; assay: EMSA; no ATP; stronger than linear and overhang; EMSA: 25 mM Hepes-NaOH pH 7.5, 200 mM NaCl, 0.5 mM EDTA, 37 C, 1 h; DNA 1 uM, TmMutS2 0-2 uM, +/- 1 mM ATP; details: protein: recombinant; tags: His-tag removed with TEV protease (pET-28aTEV); chain copies: 2; label: 5'-32P; fork; S19[1-37] paired with 3' part of S16, both other arms unpaired

B1: Thermotoga maritima MutS2 (enzyme, Thermotoga maritima MSB8, UniProt Q9X105 1-757, looked up)
chain: MDYLESLDFPKVVEIVKKYALSDLGRKHLDTLKPTVNPWDELELVEELLNYFNRWGEPPIKGLNDISQEVEKVKSGSPLEPWELLRVSVFLEGCDILKKEFEKREYSRLKETFSRLSSFREFVEEVNRCIEQDGEISDRASPRLREIRTEKKRLSSEIKRKADDFVRTHSQILQEQMYVYRDGRYLFPVKASMKNAVRGIVHHLSSSGATVFLEPDEFVELNNRVRLLEEEERLEISRILRQLTNILLSRLNDLERNVELIARFDSLYARVKFAREFNGTVVKPSSRIRLVNARHPLIPKERVVPINLELPPNKRGFIITGPNMGGKTVTVKTVGLFTALMMSGFPLPCDEGTELKVFPKIMADIGEEQSIEQSLSTFSSHMKKIVEIVKNADSDSLVILDELGSGTDPVEGAALAIAIIEDLLEKGATIFVTTHLTPVKVFAMNHPLLLNASMEFDPETLSPTYRVLVGVPGGSHAFQIAEKLGLDKRIIENARSRLSREEMELEGLIRSLHEKISLLEEEKRKLQKEREEYMKLREKYEEDYKKLRRMKIEEFDKELRELNDYIRKVKKELDQAIHVAKTGSVDEMREAVKTIEKEKKDLEQKRIEEATEEEIKPGDHVKMEGGTSVGKVVEVKSGTALVDFGFLRLKVPVSKLRKTKKEEKKETSTFSYKPSSFRTEIDIRGMTVEEAEPVVKKFIDDLMMNGISKGYIIHGKGTGKLASGVWEILRKDKRVVSFRFGTPSEGGTGVTVVEVKV
notes: MutS2 of Thermotoga maritima MSB8, gene amplified from genomic DNA; 89 kDa; residue numbers run to 757; Vector pET-28aTEV; also called TmMutS2; apo-TmMutS2; source: E. coli BL21 (DE3), purified (heat step at 65°C, Ni-NTA, TEV cleavage, Heparin Hitrap HP, Superdex 200 HR)
[1]
  stoichiometry N: 2

B2: Four-way junction (FWJ, DNA 3) (structured_DNA)
DNA 1: GACGCTGCCGAATCCTACCAGTGCCTTGCTAGGACATCTTTGCCCACCTGCAGGTCACCC
DNA 2: TGGGTGAACCTGCAGGTGGGCAAAGATGTCCTAGCAATGTAATCGTCAAGCTTTATGCCGTT
DNA 3: ATCGATAGTCGGATCCTCTAGACAGCATGTCCTAGCAAGGCACTGGTAGAATTCGGCAGCGT
DNA 4: CAACGGCATAAAGCTTGACGATTACATTGCTAGGACATGCTGTCTAGAGGATCCGACTATCGA
[2]
  binding result: binds

B3: Flayed (DNA 4, fork) (structured_DNA)
DNA 1: AACGGCATAAAGCTTGACGATTACATTGCTAGGACATGCTGTCTAGAGGATCCGACTATCGA
DNA 2: TGGGTGAACCTGCAGGTGGGCAAAGATGTCCTAGCAATGTAATCGTCAAGCTTTATGCCGTT
[3]
  binding result: binds
